Key:
Slc38a5 in α-cells = assay: Slc38a5 RNA in situ hybridization and immunofluorescence of pancreas sections; assay type: in vivo, mouse
Source text: Formalin fixed mouse pancreatic sections were permeabilized and hybridized with custom made mRNA probes to glucagon and mouse Slc38a5 (ACD BIO). Following probe hybridization and amplification, Slc38a5 mRNA was detected using red chromogen and glucagon mRNA with green chromogen (RNAscope 2.5 HD Duplex Reagent Kit) and images were obtained using a Zeiss Axio Scan.Z1 slide scanner (Zeiss).

C57BL/6 mice = assay: GCGR antibody with or without rapamycin in C57BL/6 mice: blood chemistry, islet cell mass; conditions: 21 days
Procedure: C57BL/6 mice (males, 10 weeks of age, Taconic) were housed (5 mice per cage) in a controlled environment (12-h light/dark cycle, 22±1° C., 60-70% humidity) and fed ad libitum with standard chow (Purina Laboratory Rodent Diet 5001, LabDiet). Mice were assigned to study groups (n=10) based on baseline blood glucose levels. Mice were injected subcutaneously (sc) with GCGR antibody (3 mg/kg) or the control antibody (3 mg/kg) alone or in combination with rapamycin (10 mg/kg) or the vehicle. For the duration of the study, GCGR or control antibody was administered once weekly, whereas rapamycin or the vehicle was administered daily. Blood was collected from the tail for glucose measurements without fasting. Plasma samples were collected via submandibular bleeds at baseline and on day 21 after dosing for analysis of hormones and total amino acid levels. Seven days after the last antibody administration (day 21), mice were sacrificed, organs weighed and pancreata collected.
Pancreas α- and β-cell mass was measured as described elsewhere (Okamato et al., 2015, Endocrinology 156:2781-2794). α- and PP cell mass were determined using anti-somatostatin antibody (Sigma-Aldrich; #SAB4502861) and anti-pancreatic polypeptide antibody (Sigma-Aldrich; #SAB2500747). For quantifying Slc38a5 positive α-cells, pancreas sections were stained with human anti-glucagon and rabbit anti-Slc38a5 (Abcam; #ab72717) primary antibodies, and Alexa Fluor 488 labeled donkey anti-rabbit (Jackson ImmunoResearch; #711-545-152) and Alexa Fluor 594 donkey anti-human (Jackson ImmunoResearch; #709-585-149) secondary antibodies. For quantifying proliferating cells, Alexa Fluor 647 labeled anti-Ki67 (Abcam; #ab194724) was used in combination with anti-glucagon and anti-Slc38a5 antibodies. Slides were scanned using a Zeiss Axio Scan.Z1 slide scanner (Zeiss) and the images were analyzed using the Halo (Indica Labs).
Blood glucose was determined using ACCU-CHEK® Compact Plus (Roche Diagnostics). Plasma glucagon and insulin levels were determined using glucagon and mouse insulin ELISA (Mercodia). Plasma total amino acid levels were measured using L-Amino Acid Quantification Kit (Sigma-Aldrich).

B1: α-GCGR: potent monoclonal GCGR blocking antibody, HCVR/LCVR SEQ ID NOs: 86/88 (antibody, V domains shown)
VH: EVQLVESGGGLVQPGGSLRLSCAASGFTFSNYLMNWVRQAPGKGLEWLANIQEDGIEKYYVDSVKGRFTISRDNAKNSLYLQMNSLRAEDTAVYYCAREPSHYDILTGYDYYYGMDVWGQGTTVTVS
VL: DIQMTQSPSSLSASVGDRVTITCRASQGIRNDLGWYQQKPGKAPKRLIYAASSLQSGVPSRFSGSGSGTEFILTVSSLQPEDFATYYCLQYNSNPFTFGPGTKVDIK
For B1, the “Slc38a5 immunostaining of pancreas sections” value (Slc38a5 in α-cells; mice, 3 mg/kg, 21 days) was “detected in a subset of glucagon-positive cells”, the “Slc38a5 mRNA expression in α-cells (RNA ISH)” value (Slc38a5 in α-cells; pancreas sections of treated mice) was “upregulation” and the blood glucose levels (C57BL/6 mice; C57BL/6 mice, 3 mg/kg weekly) was “reduce”. The “plasma amino acid levels” value (C57BL/6 mice; GCGR antibody 3 mg/kg) was “significantly increased” and the α-cell size (C57BL/6 mice; GCGR antibody 3 mg/kg) was “slightly increased”.

— patent publication US20190248888A1, “METHODS OF LOWERING BLOOD GLUCOSE LEVELS” (Regeneron Pharmaceuticals, Inc., priority 2016, published 2019)
